According to the supplement of paper PMC10567573:

B1: NR2F2 (parent)
chain: NIPFFPDLQITDQVALLRLTWSEL

Variants of: B1
Assay: protein stability index of a GFP-peptide fusion (GPS, HEK-293T) (PSI 1-6); higher = more stable
Conditions: c terminus: a fixed tail appended
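Further: lentivirally expressed fusions sorted by FACS into six bins by GFP to DsRed ratio, PSI derived from sequencing read proportions per bin multiplied by bin number.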

Variant | protein stability index
T20F | 1.47
T20D | 1.81
L17K | 2.43
L17F | 1.46
L17R | 1.98
L17P | 2.37
L17E | 2.26
L17W | 1.92
L17C | 1.79
L17Q | 1.99
L17D | 2.08
L17T | 3.49
L17G | 1.92
L17H | 1.54
L17I | 3.52
L17Y | 2.15
L17N | 2.59
L17V | 3.46
L17S | 1.79
L17M | 2.16
L17A | 1.49
F4E | 2.22
F4C | 2.63
F4G | 2.2

Variant | protein stability index
F4Q | 2.62
F4I | 2.63
F4V | 2.42
F4S | 2.04
F4Y | 2.56
F4N | 2.79
F4M | 2.26
F4T | 2.03
F4P | 2.58
F4D | 2.44
F4A | 2.34
F4L | 3.09
F4W | 1.44
F4K | 2.12
F4R | 1.37
F4H | 2.35
A15D | 1.92
A15P | 1.69
A15E | 1.55
A15Q | 1.9
A15I | 3.62
A15V | 2.22
A15F | 3.86
A15H | 1.57

Variant | protein stability index
A15K | 1.99
A15L | 2.58
A15T | 2.41
A15S | 2
A15R | 2.08
A15C | 2.07
A15G | 1.19
A15W | 2.03
A15Y | 1.67
A15M | 2.71
A15N | 2.38
D12W | 3.74
D12P | 4.7
D12Y | 4.16
D12S | 3.57
D12K | 3.13
D12N | 2.42
D12I | 3.82
D12T | 2.86
D12A | 3.01
D12R | 1.66
D12G | 2.42
D12L | 2.12
D12C | 2.46

Variant | protein stability index
D12F | 2.42
D12E | 3.52
D12H | 3.3
D12V | 4.16
D12M | 2.37
Q9E | 2.15
Q9R | 2.36
Q9S | 2.83
Q9N | 2.63
Q9L | 3.06
Q9V | 4.4
Q9W | 2.96
Q9C | 2.34
Q9T | 2.26
Q9P | 1.93
Q9I | 1.92
Q9A | 2.86
Q9Y | 2.88
Q9D | 2.5
Q9F | 2.56
Q9K | 1.89
Q9G | 4.13
Q9M | 2.9
Q9H | 2.84

Variant | protein stability index
L19A | 1.99
L19F | 2.73
L19H | 1.53
L19C | 2.44
L19M | 1.76
L19W | 2.23
L19E | 2.04
L19G | 2.35
L19I | 2.3
L19T | 2.23
L19P | 2.24
L19Q | 2.07
L19D | 2.28
L19K | 2.12
L19V | 3.94
L19R | 2.08
L19N | 2.4
L19S | 2.15
L19Y | 1.85
I2M | 2.5
I2Q | 1.78
I2R | 1.94
I2W | 3.13
I2T | 2.01

Variant | protein stability index
I2H | 2.1
I2P | 2.9
I2S | 2.38
I2L | 1.88
I2V | 2.03
I2N | 2.02
I2K | 2.25
I2Y | 1.47
I2G | 1.46
I10Q | 2.31
I10H | 2.34
I10W | 2.39
I10D | 1.68
I10A | 1.75
I10R | 1.49
I10N | 2.05
I10G | 1.4
I10Y | 3.02
I10P | 2.2
I10C | 2.15
I10T | 1.72
I10E | 1.68
I10V | 2.68
I10S | 2.09

Variant | protein stability index
I10L | 2.47
I10M | 2.49
I10K | 2.58
I10F | 2.95
T11K | 2.55
T11Y | 1.46
T11R | 2.52
T11L | 4.1
T11S | 2.96
T11I | 2.59
T11N | 1.67
T11D | 1.61
T11H | 2.89
T11F | 3.29
T11C | 2.25
T11Q | 2.47
T11W | 3.19
T11A | 3.71
T11G | 2.28
T11V | 1.99
T11E | 2.06
T11P | 2.02
T11M | 3.1
